Measured values: patent US20260167699A1 (Chugai, published 2026)

B1: GpH7-A5/GpH7-B3 variant T335_14T/GpL16-k0 (antibody, human IgG1, kappa)
heavy 1: not shown
heavy 2: not shown
light: DIVMTQSPLSLPVTPGEPASISCQASESLVHSNRNTYLHWYLQKPGQSPQLLIYKVSNRFSGVPDRFSGSGSGTDFTLKISRVEAEDVGVYYCSQNTHVPPTFGQGTKVEIERTVAAPSVFIFPPSDEQLKSGTASVVCLLNNFYPREAKVQWKVDNALQSGNSQESVTEQDSKDSTYSLSSTLTLSKADYEKHKVYACEVTHQGLSSPVTKSFNRGEC
B2: GpH7-A5/GpH7-B3 variant E333_12R/GpL16-k0 (antibody, human IgG1, kappa)
heavy 1: not shown
heavy 2: not shown
light: B1 light
notes: copies: 1 + 1 + 2
B3: GpH7-A5/GpH7-B3 variant A330_05P/GpL16-k0 (antibody, human IgG1, kappa)
heavy 1: not shown
heavy 2: not shown
light: B1 light
notes: copies: 1 + 1 + 2
B4: GpH7-A5/GpH7-B3 variant E333_02A/GpL16-k0 (antibody, human IgG1, kappa)
heavy 1: not shown
heavy 2: not shown
light: B1 light
notes: copies: 1 + 1 + 2
B5: GpH7-A5/GpH7-B3 variant A330_07I/GpL16-k0 (antibody, human IgG1, kappa)
heavy 1: not shown
heavy 2: not shown
light: B1 light
notes: copies: 1 + 1 + 2
B6: GpH7-A5/GpH7-B3 variant A330_09D/GpL16-k0 (antibody, human IgG1, kappa)
heavy 1: not shown
heavy 2: not shown
light: B1 light
notes: copies: 1 + 1 + 2
B7: GpH7-A5/GpH7-B3 variant A327_10E/GpL16-k0 (antibody, human IgG1, kappa)
heavy 1: not shown
heavy 2: not shown
light: B1 light
notes: copies: 1 + 1 + 2
B8: GpH7-A5/GpH7-B3 variant A330_16H/GpL16-k0 (antibody, human IgG1, kappa)
heavy 1: not shown
heavy 2: not shown
light: B1 light
notes: copies: 1 + 1 + 2
B9: GpH7-A5/GpH7-B3 variant E333_08L/GpL16-k0 (antibody, human IgG1, kappa)
heavy 1: not shown
heavy 2: not shown
light: B1 light
notes: copies: 1 + 1 + 2
B10: GpH7-A5/GpH7-B3 variant A327_01G/GpL16-k0 (antibody, human IgG1, kappa)
heavy 1: not shown
heavy 2: not shown
light: B1 light
notes: copies: 1 + 1 + 2
B11: GpH7-A5/GpH7-B3 variant E333_06M/GpL16-k0 (antibody, human IgG1, kappa)
heavy 1: not shown
heavy 2: not shown
light: B1 light
notes: copies: 1 + 1 + 2
B12: GpH7-A5/GpH7-B3 variant A330_04F/GpL16-k0 (antibody, human IgG1, kappa)
heavy 1: not shown
heavy 2: not shown
light: B1 light
notes: copies: 1 + 1 + 2
B13: GpH7-A5/GpH7-B3 variant A330_11K/GpL16-k0 (antibody, human IgG1, kappa)
heavy 1: not shown
heavy 2: not shown
light: B1 light
notes: copies: 1 + 1 + 2
B14: GpH7-A5/GpH7-B3 variant E333_09D/GpL16-k0 (antibody, human IgG1, kappa)
heavy 1: not shown
heavy 2: not shown
light: B1 light
notes: copies: 1 + 1 + 2
B15: GpH7-A5/GpH7-B3 variant E269_07I/GpL16-k0 (antibody, human IgG1, kappa)
heavy 1: not shown
heavy 2: not shown
light: B1 light
notes: copies: 1 + 1 + 2
B16: GpH7-A5/GpH7-B3 variant E269_06M/GpL16-k0 (antibody, human IgG1, kappa)
heavy 1: not shown
heavy 2: not shown
light: B1 light
notes: copies: 1 + 1 + 2
B17: GpH7-A5/GpH7-B3 variant E269_16H/GpL16-k0 (antibody, human IgG1, kappa)
heavy 1: not shown
heavy 2: not shown
light: B1 light
notes: copies: 1 + 1 + 2
B18: GpH7-A5/GpH7-B3 variant D270_08L/GpL16-k0 (antibody, human IgG1, kappa)
heavy 1: not shown
heavy 2: not shown
light: B1 light
notes: copies: 1 + 1 + 2
B19: GpH7-A5/GpH7-B3 variant E269_15Y/GpL16-k0 (antibody, human IgG1, kappa)
heavy 1: not shown
heavy 2: not shown
light: B1 light
notes: copies: 1 + 1 + 2
B20: GpH7-A5/GpH7-B3 variant E333_03V/GpL16-k0 (antibody, human IgG1, kappa)
heavy 1: not shown
heavy 2: not shown
light: B1 light
notes: copies: 1 + 1 + 2
B21: GpH7-A5/GpH7-B3 variant A327_06M/GpL16-k0 (antibody, human IgG1, kappa)
heavy 1: not shown
heavy 2: not shown
light: B1 light
notes: copies: 1 + 1 + 2
B22: GpH7-A5/GpH7-B3 variant D270_14T/GpL16-k0 (antibody, human IgG1, kappa)
heavy 1: not shown
heavy 2: not shown
light: B1 light
notes: copies: 1 + 1 + 2
B23: GpH7-A5/GpH7-B3 variant A327_20W/GpL16-k0 (antibody, human IgG1, kappa)
heavy 1: not shown
heavy 2: not shown
light: B1 light
notes: copies: 1 + 1 + 2
B24: GpH7-A5/GpH7-B3 variant D270_18N/GpL16-k0 (antibody, human IgG1, kappa)
heavy 1: not shown
heavy 2: not shown
light: B1 light
notes: copies: 1 + 1 + 2
B25: GpH7-A5/GpH7-B3 variant A330_20W/GpL16-k0 (antibody, human IgG1, kappa)
heavy 1: not shown
heavy 2: not shown
light: B1 light
notes: copies: 1 + 1 + 2
B26: GpH7-A5/GpH7-B3 variant D270_07I/GpL16-k0 (antibody, human IgG1, kappa)
heavy 1: not shown
heavy 2: not shown
light: B1 light
notes: copies: 1 + 1 + 2
B27: GpH7-A5/GpH7-B3 variant E269_19Q/GpL16-k0 (antibody, human IgG1, kappa)
heavy 1: not shown
heavy 2: not shown
light: B1 light
notes: copies: 1 + 1 + 2
B28: GpH7-A5/GpH7-B3 variant D270_10E/GpL16-k0 (antibody, human IgG1, kappa)
heavy 1: not shown
heavy 2: not shown
light: B1 light
notes: copies: 1 + 1 + 2
B29: GpH7-A5/GpH7-B3 variant D270_03V/GpL16-k0 (antibody, human IgG1, kappa)
heavy 1: not shown
heavy 2: not shown
light: B1 light
notes: copies: 1 + 1 + 2
B30: GpH7-A5/GpH7-B3 variant A330_10E/GpL16-k0 (antibody, human IgG1, kappa)
heavy 1: not shown
heavy 2: not shown
light: B1 light
notes: copies: 1 + 1 + 2

These binders were tested against T1, FcγRIIIa (human, UniProt P08637 17-208) (assay: SPR (Biacore);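 also: antibody variants captured on an SPR sensor chip, with FcγRIIIa passed over as analyte in HBS-EP+ buffer at 25 °C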).
T1 construct: extracellular domain; also called 3a; FcγRIIIa extracellular domain
T1 sequence (P08637 other isoform, or with tags, fused parts or gaps): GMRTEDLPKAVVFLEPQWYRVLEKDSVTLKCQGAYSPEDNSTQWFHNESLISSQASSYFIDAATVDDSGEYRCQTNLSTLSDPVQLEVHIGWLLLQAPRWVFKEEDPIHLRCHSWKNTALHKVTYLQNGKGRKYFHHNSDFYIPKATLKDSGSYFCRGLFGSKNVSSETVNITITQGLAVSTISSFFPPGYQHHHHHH
Method: The antibody of interest was analyzed for its interaction with FcγR using a BiaCore™ T100, BiaCore™ A100, or BiaCore™ 4000 surface plasmon resonance system (GE Healthcare Japan Corp.). The running buffer used was HBS-EP+ (GE Healthcare Japan Corp.). The assay temperature was set to 25° C. The sensor chips used were: a chip prepared by immobilizing antigenic peptides onto Series S Sensor Chip CM5 (GE Healthcare Japan Corp.) by the amine coupling method; a chip prepared by immobilizing antigenic peptides biotinylated in advance onto Series S Sensor Chip SA (certified) (GE Healthcare Japan Corp.) through their interaction; a chip prepared by immobilizing protein L (ACTIGEN, BioVision, Inc.) onto Series S Sensor Chip CM5 (GE Healthcare Japan Corp.); and a chip prepared by immobilizing protein A/G (Thermo Fisher Scientific K.K.) onto Series S Sensor Chip CM5 (GE Healthcare Japan Corp.). The antibody of interest was captured onto any of these chips and allowed to interact with FcγR diluted with a running buffer. The antibody captured on the chip was washed off through the reaction of 10 mM glycine-HCl (pH 1.5) to regenerate the chip, which was repetitively used.

Binder	He/Con 3a
B1	104 % of GpH7-A5/GpH7-B3/GpL16-k0
B2	92.2 % of GpH7-A5/GpH7-B3/GpL16-k0
B3	152 % of GpH7-A5/GpH7-B3/GpL16-k0
B4	108 % of GpH7-A5/GpH7-B3/GpL16-k0
B5	101 % of GpH7-A5/GpH7-B3/GpL16-k0
B6	56.4 % of GpH7-A5/GpH7-B3/GpL16-k0
B7	70.5 % of GpH7-A5/GpH7-B3/GpL16-k0
B8	102 % of GpH7-A5/GpH7-B3/GpL16-k0
B9	102 % of GpH7-A5/GpH7-B3/GpL16-k0
B10	74.4 % of GpH7-A5/GpH7-B3/GpL16-k0
B11	100 % of GpH7-A5/GpH7-B3/GpL16-k0
B12	144 % of GpH7-A5/GpH7-B3/GpL16-k0
B13	91.8 % of GpH7-A5/GpH7-B3/GpL16-k0
B14	115 % of GpH7-A5/GpH7-B3/GpL16-k0
B15	55.3 % of GpH7-A5/GpH7-B3/GpL16-k0
B16	57.9 % of GpH7-A5/GpH7-B3/GpL16-k0
B17	50.7 % of GpH7-A5/GpH7-B3/GpL16-k0
B18	65.1 % of GpH7-A5/GpH7-B3/GpL16-k0
B19	51.5 % of GpH7-A5/GpH7-B3/GpL16-k0
B20	106 % of GpH7-A5/GpH7-B3/GpL16-k0
B21	54 % of GpH7-A5/GpH7-B3/GpL16-k0
B22	55.4 % of GpH7-A5/GpH7-B3/GpL16-k0
B23	52.6 % of GpH7-A5/GpH7-B3/GpL16-k0
B24	51.2 % of GpH7-A5/GpH7-B3/GpL16-k0
B25	102 % of GpH7-A5/GpH7-B3/GpL16-k0
B26	63.1 % of GpH7-A5/GpH7-B3/GpL16-k0
B27	64.3 % of GpH7-A5/GpH7-B3/GpL16-k0
B28	112 % of GpH7-A5/GpH7-B3/GpL16-k0
B29	54.6 % of GpH7-A5/GpH7-B3/GpL16-k0
B30	82.8 % of GpH7-A5/GpH7-B3/GpL16-k0
